Assay results as given in publication PMC6325607.

Tests used:
Cys149 (position 149, …) = experiment: chemical modification; conditions: 25 °C; not stated (10 mM buffers); 10 mM sodium acetate (pH 4-5), 10 mM MES (pH 5.5-6.5), 10 mM Tris/HCl (pH 7-9); Native reduced enzyme at 2.8 uM, with no substrate or NAD+ added. Cofactor occupancy is not stated.
[1] = target: Cys149 (UniProt position 150, …); conditions: cited from earlier work
Cys149 = conditions: cited from earlier work

B1: Glyceraldehyde-3-phosphate dehydrogenase GapA (CbGAPDH) (Citrobacter sp. S-77) (protein)
chain: TIKVGINGFGRIGRIVFRAAQERSDIEIVAINDLLDADYMAYMLKYDSTHGRFNGSVEVKDGHLIVNGKKIRVTAERDPANLKWDEVGVDVVAEATGLFLTDETARKHITAGAKKVVLTGPSKDNTPMFVKGANFDKYEGQDIVSNASCTTNCLAPLAKVINDNFGIIEGLMTTVHATTATQKTVDGPSHKDWRGGRGAAQNIIPSSTGAAKAVGKVLPELNGKLTGMAFRVPTPNVSVVDLTVRLEKAASYEEIKKAIKAASEGPMKGVLGYTEDDVVSTDFNGEVCTSVFDAKAGIALNDNFVKLVSWYDNETGYSNKVLDLIAHISK
Protein B1 has a pKa (Cys149 (position 149, …)) of 5.82 ± 0.05.

B2: Glyceraldehyde-3-phosphate dehydrogenase A (GAPDH) (Escherichia coli) (protein)
chain: TIKVGINGFGRIGRIVFRAAQKRSDIEIVAINDLLDADYMAYMLKYDSTHGRFDGTVEVKDGHLIVNGKKIRVTAERDPANLKWDEVGVDVVAEATGLFLTDETARKHITAGAKKVVMTGPSKDNTPMFVKGANFDKYAGQDIVSNASCTTNCLAPLAKVINDNFGIIEGLMTTVHATTATQKTVDGPSHKDWRGGRGASQNIIPSSTGAAKAVGKVLPELNGKLTGMAFRVPTPNVSVVDLTVRLEKAATYEQIKAAVKAAAEGEMKGVLGYTEDDVVSTDFNGEVCTSVFDAKAGIALNDNFVKLVSWYDNETGYSNKVLDLIAHISK
For B2, the pKa [1] is listed as 5.70.

B3: Glyceraldehyde-3-phosphate dehydrogenase (GAPDH) (Geobacillus stearothermophilus (Bacillus stearothermophilus)) (protein)
chain: AVKVGINGFGRIGRNVFRAALKNPDIEVVAVNDLTDANTLAHLLKYDSVHGRLDAEVSVNGNNLVVNGKEIIVKAERDPENLAWGEIGVDIVVESTGRFTKREDAAKHLEAGAKKVIISAPAKNEDITIVMGVNQDKYDPKAHHVISNASCTTNCLAPFAKVLHEQFGIVRGMMTTVHSYTNDQRILDLPHKDLRRARAAAESIIPTTTGAAKAVALVLPELKGKLNGMAMRVPTPNVSVVDLVAELEKEVTVEEVNAALKAAAEGELKGILAYSEEPLVSRDYNGSTVSSTIDALSTMVIDGKMVKVVSWYDNETGYSHRVVDLAAYIASKGL
For B3, the pKa (Cys149) is given as 5.92.
